Assay results: patent US10906989 (dated 2021)
Like-named read-outs stand apart in the source and are kept apart here.

T1: BODIPY-labeled staphylocoagulase SC (S7C)(1-325) (Staphylococcus aureus, UniProt P17855 27-351)
T1 sequence: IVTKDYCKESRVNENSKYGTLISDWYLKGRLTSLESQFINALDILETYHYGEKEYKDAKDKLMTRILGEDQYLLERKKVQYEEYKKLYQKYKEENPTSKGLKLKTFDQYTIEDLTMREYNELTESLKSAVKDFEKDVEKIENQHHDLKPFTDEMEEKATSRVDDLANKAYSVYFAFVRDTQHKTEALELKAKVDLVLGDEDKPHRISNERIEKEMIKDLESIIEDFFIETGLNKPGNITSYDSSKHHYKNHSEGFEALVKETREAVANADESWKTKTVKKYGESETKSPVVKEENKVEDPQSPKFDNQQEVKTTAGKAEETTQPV

T2: staphylocoagulase SC(1-246), unlabeled (Staphylococcus aureus, UniProt P17855 27-272)
T2 sequence: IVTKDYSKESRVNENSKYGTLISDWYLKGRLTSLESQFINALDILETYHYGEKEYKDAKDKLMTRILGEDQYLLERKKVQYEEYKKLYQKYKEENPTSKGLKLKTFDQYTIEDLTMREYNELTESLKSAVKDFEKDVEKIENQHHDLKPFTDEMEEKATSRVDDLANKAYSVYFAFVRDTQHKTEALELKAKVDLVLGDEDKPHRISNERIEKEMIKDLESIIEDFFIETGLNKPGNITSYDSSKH

B1: GMA-2105 murine monoclonal antibody (antibody, V domains shown)
VH: EVKLEESGGGLVQPGGSMKLSCAASGFTFSDAWMDWVRQSPEKGLEWVAEIRTKANNHATYYAESVKGRFTISRDDSKSSVYLQMNSLRAEDTGIYYCTNVYYGNNDVKDYWGQGTSVTVSP
VL: DIVMTQSQKFMSTSVGDRVSVTCKASQNVDIYVAWYQQKPGQSPKALIYSASYRFSGVPDRFTGSGSGTDFTLSISNVQSEDLAEYFCQQYNNYPYTFGGGTKLEIKR
notes: also called anti-SC(1-10) mAb; clone 2A1.5H4.B7
B2: Chimeric GMA-2105 (antibody, V domains shown)
VH: B1 VH
VL: B1 VL

Tests used:
[1] = molecular target: T1, BODIPY-labeled staphylocoagulase SC …; assay: BODIPY fluorescence increase on titration, quadratic binding equation
[2] = molecular target: Mutated Peptide Ala 8 & 9 (Staphylococcus aureus); assay: solid phase competitive inhibition ELISA; peptide in solution against coated …
Mutated Peptide Ala 9 = Mutated Peptide Ala 9 (Staphylococcus aureus); assay: as above
Mutated Peptide Ala 8 = Mutated Peptide Ala 8 (Staphylococcus aureus); assay: as above
[3] = molecular target: T2, staphylocoagulase SC(1-246), unlabeled
[4] = molecular target: T1, BODIPY-labeled staphylocoagulase SC …

Binder | Kd [1] [nM] | stoichiometry (n) [1] | binding result [2] | binding result (Mutated Peptide Ala 9) | binding result (Mutated Peptide Ala 8) | Kd [3] [nM] | Kd [4] [nM] | stoichiometry [4]
B1 | 2 | 1.6 mol BODIPY-SC/mol GMA-2105 | binds | binds | binds | 4 | 0.99 | 2 mol staphylocoagulase/mol GMA-2105
B2 | – | – | – | – | – | – | 0.79 | 2 mol staphylocoagulase/mol chimeric antibody
